Laboratory results taken from publication PMC5036782 (Biophysics, 2011).

Columns and labels:
Assay in all cases: NMR titration; 1H-13C HSQC of selectively [13C]-methyl-Met labelled CaM or variant, Ca2+-bound form compared with the complex with skMLCKp; 20 mM phosphate, 100 mM KCl, 10 mM CaCl2, pH 7.0, 25°C, about 0.6 mM protein, 800 MHz
Conditions in all cases: both partners purified
[1] = biological target: intact chicken calmodulin (CCM0) (chicken, UniProt P62149 1-149)
[2] = biological target: CCMΔ5, chicken calmodulin lacking the last five residues (M144 to K148) (chicken, UniProt P62149 1-144)
[3] = biological target: CCMΔ4, chicken calmodulin lacking the last four residues (M145 to K148) (chicken, UniProt P62149 1-145)

Measured: binding result

KRRWKKNFIAVSAANRFKKISSSGAL
binds: all assays above
